B1: BTBD1 (parent)
chain: FVLGKGRGAAAAGGPQRIPAHRFV
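Further: lentivirally expressed fusions sorted by FACS into six bins by GFP to DsRed ratio, PSI derived from sequencing read proportions per bin multiplied by bin number.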

Variants of: B1
Assay: protein stability index of a GFP-peptide fusion (GPS, HEK-293T) (PSI 1-6); higher = more stable
Details: c terminus: a fixed tail appended
In the case of P19N, the protein stability index is reported as 2.06. Variant P19T has a protein stability index of 1.88. P19R showed a protein stability index of 1.81. Work on P19S yielded a protein stability index of 1.31. In the case of P19V, the protein stability index is reported as 1.26. P19L gave a protein stability index of 1.5. P19H gave a protein stability index of 1.27. In the case of P19Q, the protein stability index is reported as 2.17. P19D showed a protein stability index of 1.53. For P19A, the protein stability index was 1.34. With P19E the protein stability index was 1.78. With P19I the protein stability index was 2.16. With A20F the protein stability index was 2.32. In the case of A20C, the protein stability index is reported as 1.73. Variant A20E has a protein stability index of 2.49. Work on A20H yielded a protein stability index of 2.4. For A20M, the protein stability index was 2.09. Work on A20L yielded a protein stability index of 1.76. For A20N, the protein stability index was 1.49. Variant A20G has a protein stability index of 1.46. In the case of R17D, the protein stability index is reported as 2.54. In the case of R17K, the protein stability index is reported as 2.01. R17M gave a protein stability index of 1.56. In the case of R17H, the protein stability index is reported as 1.86. R17L gave a protein stability index of 2.01. For R17S, the protein stability index was 1.86. R17W gave a protein stability index of 1.41. R17I gave a protein stability index of 3.15. In the case of R17E, the protein stability index is reported as 2.13. Variant R17C has a protein stability index of 1.9. For R17Q, the protein stability index was 1.92. R17V gave a protein stability index of 2.52. In the case of R17F, the protein stability index is reported as 1.28. R17Y gave a protein stability index of 1.49. With R17N the protein stability index was 1.64. Variant P15Q has a protein stability index of 1.5. In the case of P15V, the protein stability index is reported as 1.43. Work on P15R yielded a protein stability index of 1.99. Variant P15L has a protein stability index of 1.43. P15D gave a protein stability index of 1.86. Work on P15T yielded a protein stability index of 2. P15M gave a protein stability index of 2.08. For P15K, the protein stability index was 1.06. Variant P15S has a protein stability index of 1.7. P15E gave a protein stability index of 1.81. With P15C the protein stability index was 3.79. With P15Y the protein stability index was 1.49. In the case of P15H, the protein stability index is reported as 1.85. P15W gave a protein stability index of 1.03. For P15N, the protein stability index was 1.52. In the case of A10P, the protein stability index is reported as 1.95. A10T showed a protein stability index of 1.91. For A10C, the protein stability index was 1.36. Work on A10Y yielded a protein stability index of 1.79. With A10F the protein stability index was 2.27. A10E showed a protein stability index of 1.67. For A10S, the protein stability index was 2. A10L gave a protein stability index of 1.46. Variant A10N has a protein stability index of 1.96. A10R gave a protein stability index of 1.91. With A10K the protein stability index was 2.08. A10Q showed a protein stability index of 2.03. Work on A10V yielded a protein stability index of 1.43. A10I showed a protein stability index of 1.52. Variant A10M has a protein stability index of 1.34. For A10W, the protein stability index was 1.98. In the case of A10D, the protein stability index is reported as 1.64. A10H gave a protein stability index of 1.68. Variant A9V has a protein stability index of 2.21. Variant A9E has a protein stability index of 2.72. With A9K the protein stability index was 1.92. In the case of A9T, the protein stability index is reported as 1.96. A9H gave a protein stability index of 2.08. For A9I, the protein stability index was 1.94. Variant A9G has a protein stability index of 1.72. Variant A9S has a protein stability index of 1.57. In the case of A9D, the protein stability index is reported as 2.35. A9Y gave a protein stability index of 1.87. In the case of A9L, the protein stability index is reported as 3.31. A9C showed a protein stability index of 2.47. A9F showed a protein stability index of 1.28. For A9N, the protein stability index was 1.95. Work on A9P yielded a protein stability index of 1.6. With A12D the protein stability index was 1.91. Work on A12G yielded a protein stability index of 2.21. Work on A12M yielded a protein stability index of 1.52. Work on A12C yielded a protein stability index of 2.54. Variant A12K has a protein stability index of 1.82. With A12E the protein stability index was 1.84. For A12Y, the protein stability index was 1.16. Variant A12L has a protein stability index of 1.38. Variant A12Q has a protein stability index of 1.43. Work on A12W yielded a protein stability index of 2.86. With A12N the protein stability index was 1.78. For G14H, the protein stability index was 1.87. G14D showed a protein stability index of 2.64. In the case of G14V, the protein stability index is reported as 1.9. G14I gave a protein stability index of 1.26. Variant G14Y has a protein stability index of 1.07. With G14L the protein stability index was 2.15. G14Q gave a protein stability index of 2.88. In the case of G14K, the protein stability index is reported as 2.83. G14N showed a protein stability index of 1.93. In the case of G14M, the protein stability index is reported as 1.88. Work on G14R yielded a protein stability index of 1.04. For G14C, the protein stability index was 2.08. With G14S the protein stability index was 2.64. In the case of A11C, the protein stability index is reported as 2.71. In the case of A11D, the protein stability index is reported as 1.14. A11V showed a protein stability index of 1.28. Work on A11H yielded a protein stability index of 1.96. With A11L the protein stability index was 1.31. Variant A11E has a protein stability index of 1.94. With A11F the protein stability index was 1.04. Work on A11K yielded a protein stability index of 1.77. Work on A11Y yielded a protein stability index of 1.63. With A11M the protein stability index was 1.73. A11P gave a protein stability index of 1.5. Variant A11I has a protein stability index of 1.87. In the case of A11N, the protein stability index is reported as 1.71. With A11R the protein stability index was 1.41. A11S showed a protein stability index of 2.58. A11T gave a protein stability index of 1.52. In the case of A11W, the protein stability index is reported as 2.84. In the case of G8R, the protein stability index is reported as 1.78. Variant G8V has a protein stability index of 1.39. Work on G8Y yielded a protein stability index of 1.44. With G8Q the protein stability index was 1.48. With G8T the protein stability index was 2. G8S gave a protein stability index of 1.2. For Q16R, the protein stability index was 1.9. Q16I gave a protein stability index of 2.2. In the case of Q16V, the protein stability index is reported as 2.31. Work on Q16P yielded a protein stability index of 1.86. Q16G showed a protein stability index of 1.87. In the case of Q16A, the protein stability index is reported as 1.6. Q16T showed a protein stability index of 1.39. Q16S showed a protein stability index of 1.9. Q16N gave a protein stability index of 2.54. Q16D showed a protein stability index of 1.41. Q16M showed a protein stability index of 2.2. Work on Q16E yielded a protein stability index of 1.67. Variant G13S has a protein stability index of 2.15. With G13M the protein stability index was 2.07. G13D showed a protein stability index of 2.24. For G13H, the protein stability index was 1.71. G13I showed a protein stability index of 2.25. G13Y showed a protein stability index of 1.57. Work on G13V yielded a protein stability index of 1.36. G13E gave a protein stability index of 2.31. Work on G13P yielded a protein stability index of 1.75. G13K showed a protein stability index of 1.16. For G13Q, the protein stability index was 2. G13N gave a protein stability index of 2.57. G13L gave a protein stability index of 2.14. Work on G13F yielded a protein stability index of 1.3. Variant G13R has a protein stability index of 1.41. I18F showed a protein stability index of 1.93. With I18Q the protein stability index was 2.03. For I18Y, the protein stability index was 1.74. I18N showed a protein stability index of 2.12. With I18P the protein stability index was 2.12. Variant I18W has a protein stability index of 1.91. I18R showed a protein stability index of 1.46. For I18M, the protein stability index was 2.87. For I18C, the protein stability index was 2.27. I18D showed a protein stability index of 2.16.

— the supplement of paper PMC10567573
